# Measured values taken from CN112679613A.
# Residue numbers refer to the chain shown, from its start.
# B1: 2D3单克隆抗体 (antibody, V domains shown)
# VH: EVKLVESGGGLVKPGGSLKLSCAASGFTFSSAAMRWVRQIPEKRLEWVARIEEGGSAYFPDSVLVRFTISRDNARNICYLQMNSLRSDDTAMYYCARSRESPAGYFKLWGQGTTLTVSS
# VL: DIVLTQSPASLAVSLGQRATISCCASESVHPYGTSLAMWYQQKPGQPPKLLIYASSRVEPGVPARFSGSGSGTDFSLNIHPVEEDDIAMYFCSSSGQVPARFGAGTKLELK
# B2: 3E2单克隆抗体 (antibody, V domains shown)
# VH: EVKLVESGGGLVKPGGSLKLSCAASGFTFSNSAMRWVRQIPEKRLEWVAVIRAGGSLYFPDRVKSRFTISRDNARNICYLQMNSLRSDDTAMYYCARGREADGGYFDYWGQGTTLTVSS
# VL: DIVLTQSPASLAVSLGQRATISCAASERREYYGTSLASWYQQKPGQPPKLLIYARSNVEYGVPARFSGSGSGTDFSLNIHPVEEDDIAMYFCGSSMKRPLRFGAGTKLELK
# B3: 4D3单克隆抗体 (antibody, V domains shown)
# VH: EVKLVESGGGLVKPGGSLKLSCAASGFTFSASAQSWVRQIPEKRLEWVALQSRSGSLYFPASVKQRFTISRDNARNICYLQMNSLRSDDTAMYYCARSREASGGYIDEWGQGTTLTVSS
# VL: DIVLTQSPASLAVSLGQRATISCSASESGGYYGTSLMNWYQQKPGQPPKLLIYSTSNEEKGVPARFSGSGSGTDFSLNIHPVEEDDIAMYFCGQSMKRPLRFGAGTKLELK
# B4: 4D6单克隆抗体 (antibody, V domains shown)
# VH: EVKLVESGGGLVKPGGSLKLSCAASGFTFSQYRMGWVRQIPEKRLEWVAEISSASSLYFPDSVKSRFTISRDNARNICYLQMNSLRSDDTAMYYCARAREADNVYFDAWGQGTTLTVSS
# VL: DIVLTQSPASLAVSLGQRATISCSQSESGTYYGTSLAMWYQQKPGQPPKLLIYAASNVESGVPARFSGSGSGTDFSLNIHPVEEDDIAMYFCTASMKAPLRFGAGTKLELK
# B5: 5A3单克隆抗体 (antibody, V domains shown)
# VH: B2 VH with N31R, S32Y, R35S, V50A, R52S, A53S, R62S, S65G
# VL: DIVLTQSPASLAVSLGQRATISCSASESCYYYGTSLAQWYQQKPGQPPKLLIYKLSNVRGGVPARFSGSGSGTDFSLNIHPVEEDDIAMYFCRQPMKVPLKFGAGTKLELK
# B6: 5D7单克隆抗体 (antibody, V domains shown)
# VH: EVKLVESGGGLVKPGGSLKLSCAASGFTFSDAAMRWVRQIPEKRLEWVASISSLISLYFPDSVESRFTISRDNARNICYLQMNSLRSDDTAMYYCARGAEASGGYFDQWGQGTTLTVSS
# VL: B2 VL with A24S, R28H, R29P, A37M, S38A, R55S, Y60T, G93Q, S94V, R101D
# B7: 6F4单克隆抗体 (antibody, V domains shown)
# VH: EVKLVESGGGLVKPGGSLKLSCAASGFTFSQYASLWVRQIPEKRLEWVAAISGQGSLYFPDSVCTRFTISRDNARNICYLQMNSLRSDDTAMYYCARGAAADGGYFDTWGQGTTLTVSS
# VL: DIVLTQSPASLAVSLGQRATISCSASESVEFSGTSLTRWYQQKPGQPPKLLIYASQNVEGGVPARFSGSGSGTDFSLNIHPVEEDDIAMYFCCYSMKVPPRFGAGTKLELK
# B8: 6G5单克隆抗体 (antibody, part only; not given: Light chain variable region, V domains shown, part only)
# VH: EVKLVESGGGLVKPGGSLKLSCAASGFTFSAYAMTWVRQIPEKRLEWVAAISPTGSLYFPGSVSGRFTISRDNARNICYLQMNSLRSDDTAMYYCARGVEADSQYFDKWGQGTTLTVSS
# Experiments:
# [1] = target: 肝癌Huh-7细胞 (Huh-7癌细胞抗原; Huh-7细胞裂解蛋白); test: indirect ELISA; plate coated with 2 μg/mL Huh-7 cell antigen; purified ascites antibody in 2-fold dilutions
# [2] = target: 肝癌Huh-7细胞 (Huh-7癌细胞抗原; Huh-7细胞裂解蛋白); test: SPR, BIAcore T-200, 1:1 Langmuir model; binding to liver cancer Huh-7 cells
binder,measurement,setting,value
B1,抗体效价,[1],5.12e+06
same,Kd,[2],0.23 nM
B2,抗体效价,[1],2.56e+06
same,Kd,[2],0.56 nM
B3,抗体效价,[1],5.12e+06
same,Kd,[2],0.29 nM
B4,抗体效价,[1],5.12e+06
same,Kd,[2],0.31 nM
B5,抗体效价,[1],2.56e+06
same,Kd,[2],0.58 nM
B6,抗体效价,[1],5.12e+06
same,Kd,[2],0.45 nM
B7,抗体效价,[1],2.56e+06
same,Kd,[2],0.62 nM
B8,抗体效价,[1],5.12e+06
same,Kd,[2],0.34 nM
